Laboratory results reported in the nanobody polyreactivity screen of Harvey et al. (2022).

Assay: yeast display, Sf9 membrane polyspecificity reagent, FACS + sequencing; frameworks hold sequencing errors
Procedure, shortened: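 After 36–48 hours of galactose induction, yeast (Saccharomyces cerevisiae BJ5465) displaying a synthetic nanobody library were stained at 4 °C for 1 hour with 10% biotinylated, detergent-solubilized Sf9 membrane reagent. Streptavidin microbeads enriched the stained cells before FACS sorting into low and high (top ~1%) gates on anti-HA and streptavidin fluorescence. Each clone's polyreactivity label reflects its gate of origin.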

Row | Sequence | polyreactivity (PSR sort gate)
1 | QVQLVESGGGLVQAGGSLRLSCAASGFTFYRNAMGWYRQAPGKERELVAAISWSGDSTYYADSVKGRFTISRDNAKNTVYLQMNSLKPEDTAVYYCDKERYFYYPWVTTYTSNYWGQGTQVTVSS | low polyreactivity
2 | QVQLVESGGGLVQAGGSLRLSCAASGFTFYRNAMGWYRQAPGKERELVAAITWSGTSTYYADSVKGRFTISRDNAKNTVYLQMNSLKPEDTAVYYCNTVGYRGRSNSRFYYWGQGTQVTVSS | high polyreactivity
3 | QVQLVESGGGLVQAGGSLRLSCAASGFTFYRNAMGWYRQAPGKERELVAGISKRGGSTYYADSVKGRFTISRDNAKNTVYLQMNSLKPEDTAVYYCARGGYPGSAEYDYWGQGTQVTVSS | high polyreactivity
4 | QVQLVESGGGLVQAGGSLRLSCAASGFTFYRYAMGWYRQAPGKERELVAAISWSGASTYYADSVKGRFTISRDNAKNTVYLQMNSLKPEDTPVYYCNAYDTYLGGFDYWGQGTQVTVSS | high polyreactivity
5 | QVQLVESGGGLVQAGGSLRLSCAASGFTFYRYAMGWYRQAPGKERELVAAITQSGGSTYYADSVKGRFTISRDNAKNTVYLQMNSLKPEDTAVYYCAARYRYDYGYGLGYSWGQGTQVTVSS | high polyreactivity
6 | QVQLVESGGGLVQAGGSLRLSCAASGFTFYRYAMGWYRQAPGKERELVAAITSGGSTNYADSVKGRFTISRDNANNTVYLQMNSLKPEDTAVYYCNAGRYVRWWWYSPDDYWGQGTQVTVSS | high polyreactivity
7 | QVQLVESGGGLVQAGGSLRLSCAASGFTFYRYAMGWYRQAPGKERELVATISASGGSTYYADSVKGRFTISRDNAKNTVYLQMISLKPEDTAVYYCAVRTIWRFRYDYWGQGTQVTVSS | high polyreactivity
8 | QVQLVESGGGLVQAGGSLRLSCAASGFTFYRYAMGWYRQAPGKESELVAAISGSGGSTYYADSVKGRFTISRDNAKNTVYLQMNSLKPEDTAVYYCNTVWFYGAKYDYWGQGTQVTVSS | high polyreactivity
9 | QVQLVESGGGLVQAGGSLRLSCAASGFTFYSNAMGWYRQAPGKERELVAAINWGGGSTYYADSVKGRFTISRDNAKNTVNLQMNSLKPEDTAVYYCAAEPIWEYWNGVSYAYDYWGQGTQVTVSS | low polyreactivity
10 | QVQLVESGGGLVQAGGSLRLSCAASGFTFYSNAMGWYRQAPGKERELVARITKRGGSTYYADSVKGRFTISRDNAKNTVYLQMNSLKPEDTAVYYCAADDGSDAEYYYWGQGTQVTVSS | high polyreactivity
11 | QVQLVESGGGLVQAGGSLRLSCAASGFTFYSYAMGWYRQAPGKERELVAAISRSGGSTRYADSVKGRFTISRENAKNTVYLQMNSLKPEDTAVYYCNAGKDRAYDYWGQGTQVTVSS | high polyreactivity
12 | QVQLVESGGGLVQAGGSLRLSCAASGFTFYSYARGWYRQAPGKERELVAVINSSGGRTFYADSVKGRFTISRDNAKNTVYLQMNSLKPEDTAVYYCAARYAASRGPNQGKGNYWGQGTQVTVSS | high polyreactivity
13 | QVQLVESGGGLVQAGGSLRLSCAASGFTFYSYVIGWYRQAPGKERELVAAITRGGSTYYADSVKGRFTISRDNAKNTVYLQMNSLKPEDTAVYYCAKRPSYGYNYWGQGTQVTVSS | low polyreactivity
14 | QVQLVESGGGLVQAGGSLRLSCAASGFTFYTYAMGWYRQAPGKERELVAAINRSGGRTFYADSVKGRFTISRDNAKNTDYLQMNSLKPEDTAVYYCAADSRPYVGGMDYWGQGTQVTVSS | high polyreactivity
15 | QVQLVESGGGLVQAGGSLRLSCAASGFTFYTYAMGWYRQAPGKERELVAGISTRGGRTYYADSVKGRFTISRDNAKNTVYLQMNSLKPEDTAVYYCNAVDKTGKYDYWGQGTQVTVSS | high polyreactivity
16 | QVQLVESGGGLVQAGGSLRLSCAASGFTFYTYTMGWYRQAPGKERELVAVISRSGGSTYYADSVKGRFTISRDNAKNTVYLQMNSLKPEDTAVYYCNKVGIYGSRSRYDSWGQGTQVTVSS | high polyreactivity
17 | QVQLVESGGGLVQAGGSLRLSCAASGFTFYVNAMGWYRQAPGKERELVAAISSSGTRTYYADSVKGRFTISRDKAKNTVYLQMNSLKPEDTAVYYCAARGQAYSGDRMYYWGQGTQVTVSS | high polyreactivity
18 | QVQLVESGGGLVQAGGSLRLSCAASGFTFYVNAMGWYRQAPGKERELVAAITYDGDSTYYADSVKGRFTISRDNAKNTVYLQMNSLKPEDTAVYYRNTVYGPDLDGTEYDYWGQGTQVTVSS | low polyreactivity
19 | QVQLVESGGGLVQAGGSLRLSCAASGFTFYVYAMGWYRQAPGKERELVASISRGGSTYYADSVKGRFTISRDNAKNTVYLQINSLKPEDTAVYYCNRVPYVSSSKVRYSNGFDYWGQGTQVTVSS | low polyreactivity
20 | QVQLVESGGGLVQAGGSLRLSCAASGFTFYYYAKGWYRQAPGKERELVAAINKKGGSTYADSVKGRFTISRDNAKNSVYLQLNSLKPEDTAVYYCYAVLTYTGVGYESWGQGTQVTVSS | high polyreactivity
21 | QVQLVESGGGLVQAGGSLRLSCAASGFTFYYYAMGWYRQAPGKERELVAAISRSGGSTYYADSVKGRFTISRDNAKNTVYLQMNSLKPEDTAVDYCNKGSRWLRGLDSWGQGTQVTVSS | high polyreactivity
22 | QVQLVESGGGLVQAGGSLRLSCAASGFTFYYYAMGWYRQAPGKERELVAAISWSSGRTYYADSVKGRFTISRDNAKNTVYLQMNSLKPEDTAVYYCAADGYAGSWWYDYWGQCTQVTVSS | high polyreactivity

Row | Sequence | polyreactivity (PSR sort gate)
23 | QVQLVESGGGLVQAGGSLRLSCAASGFTFYYYAMGWYRQAPGKEREMVAAISGGGGSTYYADSVKGRFTISRDNAKNTVYLQMNSLKPEDTAVFYCAAEYRGYPEDEYWGQGTQVTVSS | high polyreactivity
24 | QVQLVESGGGLVQAGGSLRLSCAASGFTFYYYAMGWYRQATGKERELVAAISSTGGSTYYADSVKGRFTISRDNAKNTVYLQMNSVKQEDSAVYYCNAAGYRYPGDYDYWGQGTQVTVSS | high polyreactivity
25 | QVQLVESGGGLVQAGGSLRLSCAASGFTFYYYTMGWYRQAPGKEREFVAAITSSGGRTNYADSVKGRFTISRDNAKNIVYLQMNRLKPEDTAVYYCAATYIRYDHYRPRGGYWGQGTQVTVSS | high polyreactivity
26 | QVQLVESGGGLVQAGGSLRLSCAASGFTFYYYTMGWYRQAPGKQRELVAAITWRGGSTNYADSVKGRFTISRDNAKNTVFLQMNSLKPEDTAVYYCAAVSYWFWPGMDYWGQGTQVTVSS | low polyreactivity
27 | QVQLVESGGGLVQAGGSLRLSCAASGFTFYYYVMGWYRQAPGKERELVAAITNGGSTYYADSVKGRFTISRDNAKNTVYLQMISLKPEDTAVYYCATRQSHWSGEFDYWGQGTQVTVSS | high polyreactivity
28 | QVQLVESGGGLVQAGGSLRLSCAASGFTIDAYAMGWDRQAPGKERELVAAISGSGGSTYYADSVKGRFTISRDNAKNTVYLQMNSLKPEDTAVYYCATDPGPYDYDYWGQGTQVTVSS | low polyreactivity
29 | QVQLVESGGGLVQAGGSLRLSCAASGFTIDDNAMGWSRQPPGKERELVAAISWSGGSTYYADSVKGRFTISRDNAKNTVYLQMNSLKPEDTAVYYCAIDVSQPKFDYWGQGTQVTVSS | low polyreactivity
30 | QVQLVESGGGLVQAGGSLRLSCAASGFTIDGYAMGWYRQAPGKERELVAAIRRGGRTKYADSVKGRFTISRDNAKNTVYLQLNSLKPEDTAVYYCNAVTRGYYHEMEYWGQGTQVTVSS | high polyreactivity
31 | QVQLVESGGGLVQAGGSLRLSCAASGFTIDYYTMGWYRQAPGKERELVAAISWSGGSTYYADSVKGRFTISRDNAKNTVYLQMNSLKPEDTAVYYCAAAWSYRYELYYWGQGTQVTVSS | low polyreactivity
32 | QVQLVESGGGLVQAGGSLRLSCAASGFTIERNAMGWYRQAPGKERELVATISQSGTNTYYADSVKGRFTISRDNAKNTVYLQMNSLKPEETAVYYCNARDIFYRYDYWGQGTLVTVSS | low polyreactivity
33 | QVQLVESGGGLVQAGGSLRLSCAASGFTIGNYAMGWYRQAPGKERELVAAISSSGTSTYYADSVKGRFTISRDIAKNTVYLQMNSLKPEDTAVYYCAAEYIINYTIFEYWGQGTQLTVSS | high polyreactivity
34 | QVQLVESGGGLVQAGGSLRLSCAASGFTIGPNAMGWYRQPPGKERELVAAISQSGGSTYADSVKGRFTISRDNAKNTVYLQMNSLKPEDTAVYYCAAQRARVNRYGGKFGYWGQGTQVTVSS | high polyreactivity
35 | QVQLVESGGGLVQAGGSLRLSCAASGFTIGYNVMGWYREAAGKERELVATISWNGARTYYADSVKGRFTISRDNAKNTVYLQMNSLKPEDTAVYYCAARRYYRGEYDYWGQGTQVTVSS | low polyreactivity
36 | QVQLVESGGGLVQAGGSLRLSCAASGFTIKWYTMGWYRPAPGKERELVAGISRRGGSTYYADSVKGRFTISRDNAKNTVYLEMNSLKPEDTAVYYCNVYSRTHYQTYTDDYWGQCTQVTVSS | high polyreactivity
37 | QVQLVESGGGLVQAGGSLRLSCAASGFTINFYAMGWYRKAPGKERELVAAITASGGGSTYYADSVKGRFTISRDNAKNTVYLQMNSLKPEDTAVYYCNADYPGSFYTYDYWGQGTQVTVSS | low polyreactivity
38 | QVQLVESGGGLVQAGGSLRLSCAASGFTINFYAMGWYRQAPGKERELVAAITASGGGSTYYADSVKGRFTISRDNAKNTVYLQMNSLKPEDTAVYYCNADYTGSFYTYDYWGQGTQVTVSS | low polyreactivity
39 | QVQLVESGGGLVQAGGSLRLSCAASGFTIPVYAMGWYRQAPGKEMELVADITESGDSTYYADSVKGRFTISRDNAKNTVYLQMNSLKPEDTAVYYCAADGGWFWSLFYTFAFDYCGQGTQVTVSS | low polyreactivity
40 | QVQLVESGGGLVQAGGSLRLSCAASGFTIRNNAMGWYRQAPGKERELVAAISYSGGSTYYADSVKGRFTISRDNAKNTVYLQMNSLKPEDTAVYYCNRRRWSYLEYDYWGQGTQVTVSS | low polyreactivity
41 | QVQLVESGGGLVQAGGSLRLSCAASGFTISANTMGCYSQAPGKERELGATISGGSSTNYADSVKGRFTISRDNAKNTVYLQMNSLKPDDTAVYYCAKDGGLRKFDYWGQGTQVTVSS | high polyreactivity
42 | QVQLVESGGGLVQAGGSLRLSCAASGFTISLNTMGWYRQAPGKERELVAAINSGDSTYADSVKGRFTISRDNAKNTGYFQMNSLKPEDTAVYYCNADPDWWYPYFYWGQGTQVTVSS | low polyreactivity
43 | QVQLVESGGGLVQAGGSLRLSCAASGFTISRYAMGWYRQAPGKERELVASITYSGTRTYYADSVKGRFTISRDNAKNTVYLQMNSLKPEDTAVYYCAADDEYKQEAEMDSWGQGTQVTVSS | low polyreactivity
